The results in this text go back to patent US20150315556.

In data set [1] the target is T1, CCR2 rationally-designed meganuclease (I-CreI derivative).
T1 chain: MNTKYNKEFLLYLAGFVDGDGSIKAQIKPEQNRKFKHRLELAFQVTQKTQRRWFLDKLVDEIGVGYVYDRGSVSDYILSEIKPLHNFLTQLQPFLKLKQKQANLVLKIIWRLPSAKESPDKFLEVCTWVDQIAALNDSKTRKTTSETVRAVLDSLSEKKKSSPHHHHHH

The target of data set [2] is T2, MYD2 rationally-designed meganuclease (I-CreI derivative).
T2 chain: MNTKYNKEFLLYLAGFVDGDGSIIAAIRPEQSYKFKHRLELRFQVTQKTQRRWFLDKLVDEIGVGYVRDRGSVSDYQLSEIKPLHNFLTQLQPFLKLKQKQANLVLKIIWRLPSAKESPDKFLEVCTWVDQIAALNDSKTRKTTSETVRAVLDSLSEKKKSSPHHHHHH

Data set [3] addresses T3, HSV2 rationally-designed meganuclease (I-CreI derivative).
T3 chain: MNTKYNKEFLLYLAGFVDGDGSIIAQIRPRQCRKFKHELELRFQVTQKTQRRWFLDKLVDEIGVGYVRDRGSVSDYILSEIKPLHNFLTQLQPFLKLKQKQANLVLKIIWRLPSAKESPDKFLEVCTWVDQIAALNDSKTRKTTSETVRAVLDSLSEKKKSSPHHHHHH

B1: CCR1 rationally-designed meganuclease (I-CreI derivative) (protein)
chain: MNTKYNKEFLLYLAGFVDGDGSIKAQIRPRQNYKFKHELELEFQVTQKTQRRWFLDKLVDEIGVGYVYDRGSVSDYILSEIKPLHNFLTQLQPFLKLKQKQANLVLKIIWRLPSAKESPDKFLEVCTWVDQIAALNDSKTRKTTSETVRAVLDSLSEKKKSSPHHHHHH
On to B1, for which the “cleavage of a linearized DNA substrate containing the intended non-palindromic recognition sequence by the 1:1 mixture” value in data set [1] is reported as “each rationally-designed meganuclease heterodimer cleaves its intended DNA site”.

B2: MYD1 rationally-designed meganuclease (I-CreI derivative) (protein)
chain: MNTKYNKEFLLYLAGFVDGDGSIIAQIRPRQSYKFKHELELAFQVTQKTQRRWFLDKLVDEIGVGKVRDRGSVSDYELSEIKPLHNFLTQLQPFLKLKQKQANLVLKIIWRLPSAKESPDKFLEVCTWVDQIAALNDSKTRKTTSETVRAVLDSLSEKKKSSPHHHHHH
As to B2, the “cleavage of a linearized DNA substrate containing the intended non-palindromic recognition sequence by the 1:1 mixture” value in data set [2] is reported as “each rationally-designed meganuclease heterodimer cleaves its intended DNA site”.

B3: HSV1 rationally-designed meganuclease (I-CreI derivative) (protein)
chain: MNTKYNKEFLLYLAGFVDGDGSIIAQIKPRQSCKFKHELRLQFQVTQKTQRRWFLDKLVDEIGVGYVRDRGSVSDYILSEIKPLHNFLTQLQPFLKLKQKQANLVLKIIWRLPSAKESPDKFLEVCTWVDQIAALNDSKTRKTTSETVRAVLDSLSEKKKSSPHHHHHH
As to B3, in data set [3], the “cleavage of a linearized DNA substrate containing the intended non-palindromic recognition sequence by the 1:1 mixture” value is on record as “each rationally-designed meganuclease heterodimer cleaves its intended DNA site”.
